T1: cjRecR (Campylobacter jejuni, UniProt Q9PN35 1-190)
T1 sequence: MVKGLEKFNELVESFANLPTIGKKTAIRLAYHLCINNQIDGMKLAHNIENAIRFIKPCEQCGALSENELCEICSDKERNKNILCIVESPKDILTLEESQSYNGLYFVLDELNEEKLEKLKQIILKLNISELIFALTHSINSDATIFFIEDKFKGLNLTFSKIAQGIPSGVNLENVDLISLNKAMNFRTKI

B1: Campylobacter jejuni RecR (natural protein, UniProt Q9PN35 1-190, looked up)
chain: T1 sequence
notes: RecR of Campylobacter jejuni subsp. jejuni (ATCC 33291), residues 1-190; cloned by PCR from genomic DNA; Expressed from a pET49b variant with an N-terminal hexahistidine tag and a thrombin site; Residues 1-189 are seen in the structure; also called cjRecR; source: E. coli BL21 (DE3), purified (Ni-NTA, thrombin cleavage, Mono Q anion exchange); not shown: His6, N-terminal, cleaved

Key:
[1] = target: the molecule itself; assay: crystal structure; crystal of cjRecR (residues 1-190), four subunits in the asymmetric unit; sitting drop, 18 °C, 17% ethanol, 0.1 M Hepes pH 7.5, 0.25 M magnesium chloride; 2.6 Å
[2] = target: the molecule itself; assay: SEC; cjRecR alone (~300 μg in 300 μL), Superdex 200 10/300, 20 mM Tris pH 8.0, 150 mM NaCl, 5 mM βME; size against gel-filtration standards
cjRecR = target: T1, cjRecR; assay: fluorescence polarization; Fluorescence polarization: 0.8 nM fluorescein 40-mer ssDNA, protein up to 100 uM, one-site fit; buffer, salt, pH and temperature not stated; conditions: protein: recombinant; tags: His6 tag removed with thrombin; chain copies: 4; single strand

Binder	stoichiometry N [1]	stoichiometry N [2]	Kd (cjRecR) [µM]
B1	4	2	–
TTATAGGCATATAGGAGTAATTTTCTTGGGCTATGCAGTA (ssDNA) [40-mer ssDNA]	–	–	6.8
